# According to patent US20090208410A1, “ED-B FIBRONECTIN AS STRATIFICATION MARKER FOR ANTI-TUMOR DRUGS” (priority 2007, published 2009):
# B1: biotinylated AP39: TCEP-reduced AP39 biotinylated using 3-(N-maleimidopropionyl) biocytin (conjugate)
# scFv: EVQLLESGGGLVQPGGSLRLSCAASGFTFSSFSMSWVRQAPGKGLEWVSSISGSSGTTYYADSVKGRFTISRDNSKNTLYLQMNSLRAEDTAVYYCAKPFPYFDYWGQGTLVTVSSGDGSSGGSGGASTGEIVLTQSPGTLSLSPGERATLSCRASQSVSSSFLAWYQQKPGQAPRLLIYYASSRATGIPDRFSGSGSGTDFTLTISRLEPEDFAVYYCQQTGRIPPTFGQGTKVEIKGGGCA
# Test system: NCI-H292 and Calu-6 tumor tissue
# Experiment: In vitro binding of biotinylated AP39 to frozen sections of tumor tissue (ExtrAvidin / DAB staining)
# Parameters: species or system human
# Settings: frozen sections (5-10 μm); NCI-H292 (FIG. 1A) compared to Calu-6 (FIG. 1B)
# Procedure: Binding studies were performed in two human NSCLC tumor models in mice: NCI-H292 which is an erlotinib-sensitive epithelial-type model, and Calu-6 which is an erlotinib-resistant mesenchymal-type model.
# TCEP-reduced AP39 was biotinylated using 3-(N-maleimidopropionyl) biocytin (Sigma). The in vitro binding of biotinylated AP39 to frozen sections (5-10 μm) of NCI-H292 and Calu-6 tumor tissue was determined by utilizing ExtrAvidin (Sigma) and Liquid DAB Substrate Pack (BioGenex) according to the protocols of the manufacturers.
molecule,measurement,value
B1,"binding to tumor tissue, NCI-H292 compared to Calu-6",more extensive binding
